From US20240026407A1, “MODIFICATION OF SAPONINS” (GLAXOSMITHKLINE BIOLOGICALS SA, priority 2020, published 2024)

Columns and labels:
Assay type in all cases: biochemical, Quillaja saponaria
[1] = Experiment 5-1: screening of additional glucosidases for deglycosylation with purified QS-18 (0.04 mg/ml) at pH 7.5 and 30 deg C; settings: pH 7.5, 30 degrees C, 18 hours, LCMS/MS
Description: The 94 additional genes, together with positive control (DNA encoding SEQ ID No. 262) and negative control, were transformed, expressed, lysed and reacted in the same manner as described above for Experiment 4-1, except the reaction was incubated at 30 degrees C. for 18 hours.
Samples were analysed by LCMS/MS according to the procedure in Experiment 4-1.

[2] = Experiment 5-2: screening of additional glucosidases for deglycosylation with QS-18 in crude bark extract (80%) at pH 6 and 35 deg C; settings: CBE 80%, pH 6, 35 deg C, 18 hours; UV HPLC
Procedure, shortened: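 Deglycosylation of QS-18 was monitored by UV HPLC after MeCN/AcOH quench with hexanophenone. The reaction ran 18 hours at 35 deg C, shaking, combining clarified pH 6 lysate with crude bark extract neutralised to pH 6 by NaOH.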

[3] = Experiment 5-3: screening of additional glucosidases for deglycosylation with QS-18 in treated bark extract (80%) at pH 6 and 35 deg C; settings: TBE 80% (QS-21 approx. 4 g/L), pH 6, 35 deg C; UV HPLC
Description: Experiment 5-1 was repeated, replacing CBE with Treated Bark Extract (TBE) at pH 6. TBE was prepared from CBE by PVPP treatment and concentration, to provide TBE with a QS-21 concentration of approximately 4 g/L. TBE was adjusted to pH 6 by dropwise addition of 2M NaOH with stirring.

Row | Molecule | Experiment 5-1 % conv [1] | Experiment 5-2 % conv [2] | Experiment 5-3 % conv [3]
1 | 849 (protein, listed as Bifidobacterium merycicum) MSDNTYPSVNDLTLEEEASLTSGGDAWHLQGVEAKGIPGYMITDGPHGLRKSLASNTGETDLNDSVPATCFPPAAGLSSSWNPELIRQVGEAMGEECIQEKVAVILGPGVNIKRNPLGGRCFEYWSEDPYLAGHEAVGIVAGVQSKGVGTSLKHFAANNQETDRLRVSANISQRALREIYFPAFEHIVKTAQPWTIMCSYNRINGVHSAQNRWLLTDVLRDEWGFEGIVMSDWGADHDRVASLNAGLNLEMPPTYTDDQIVYAARDGRIQPEQLDRMAQGMIDLVNKTRAAMSVEDYRFDVDAHNEIARRAAVESMVLLKNDDAILPVSRDAKIAVIGEFARTPRYQGGGSSHITPTKMTGFLDALAERGVPVDFAPGFTLDLEPTDPALEAEAVIAARDADVVLMFLGLPEAAESEGFDRDTLDIPAKQIELLKAVAAENKNVVVILSNGSVVSVAPWANNAKGILESWLLGQAGGAALADVIFGDVSPSGKLAQSVPMDINDDPSMINWPGEEGHVDYGEGVFVGYRYYDTYGKAVDYPFGYGLSYATFEIGGVKAVKTGANTARVSATVTNTSDVDAAETVQVYVAPGKADVARPKHELKAFRKVFLKAHESAEVSFDLDESAFAYWSEKFNDWHVEAGEYGIEVGMSSRDIAGVATVALDGDGKALPLTEWSTFGEWSADPVGSKVVADVREAGERGELPKLPDNDMMRMFLGSMPINSMSTLMGESGKAISSFMLDGYAKLVG | 17.8% | <0.5% | <0.5%
2 | 803 (protein, listed as Penicillium italicum) MVQEKDISTADAVLASLTLEEKVSLLAGGSFWSTAAIPGKSIPSVKFSDGPNGARGSEMKGGPTSACFPCAVSLAATWNLDAIKEVGKALAEETKTKGANLLLGPTVCPHRHPLGGRNFESFSEDPFLSGMMASEYIVGLQGQGIGAAIKHFAANEQETFRNILDVTVSMRALREIYLKPFEIAIKQAKPWALMTAYNSVNGSHADCNSTLLQQILREEWKWDGLVLSDWGGTNSLVESLTAGLDLEMPGPPTVRKSELIMQALESNAIPESIINDRARAVLRFVATTTGFGPQKECKEYADDRPSHRELIRQVGREGIVLLKNEDDILPLKHTASAGSLTKIALLGFADEALIHGGGSAAVNAHHRITLAEGLRDAFKDRGLEIECAKGAHTLRKLPLMVDHVKNDEGKPGWSMQFLHPKDPAGVWRHIGEPSYTPTAPGNEGMTVRATTQFCVPASGRHYLSLSGLGPSSLKINGDEVYRQDGNCPDLMAFILTSYADIPVQYDFVAGQTYHIEVLSNPLEAYNGPSFMNGRAGFSVGFMLEAERDADLLAEAVTLASRSDIAIILTGNTAEWEAEGQDQVGFHLPRDGSQDRLVSAVAAANKSTIVVNCTGGPIAMPWIHEVKALLQAWFPGQEAGHSIADILVGDRFPSGRLPVTFPRAIEDTPAYRNFPGGFEEDGRARVRYEEGVFVGYRFYDHTPEQREKVLFPFGYGLSYTSFTLHDISLATLKDHHENHIEVRVSVSNVGKRRGTETIQVYVGRADHSEQHPWKTLVAFAQVSLDAGETREMSLELSRRDLAFYDESTEHWVVEASDYLVHVGTSVFEIASTERLHIPERIDYAL | 13.1% | <0.5% | <0.5%
3 | 890 (protein, listed as Arthrobacter ulcerisalmonis) MNLPLSPAVTAPAAGSPDAEALIHNLADSLSLAEQVQLLTGADVWSTHTLPSIGLSRIVLSDGPAGVRGEDFDERHDSVSLPSSSALSASWSAELAHRYGQVLGQEARRKGVHAVLGPTINLHRSPLGGRHFECMSEDPRLTATMAAGYVAGVQSMGVGATPKHYLANESETDRFTVDSVVAERPLRELYLAAFEDAITESRAWLVMSSYNSINGTTASENDLLETPLSTEWGFDGVVVSDWTGVRSVEAANAHQDLEMPGPVGHWSAKLLAAVESGQVSREAIVEKVVRILRLAARVGSLDGVSPAVAELPAALDSAAVAREVAIRGAVLIRNSAGLLPLDASALTSVALSGHNADEARTQGGGSATVMPKQNISPLMGLREALPATTSLSYTRGAKVAEGLQQFARTALHNPVSNVPGARVTFLDASGTEIFAEDRLASSLIWFGVGIPEGTAAITISTDWTAEQAGVHHLGLGTVGQARLSFNGTEVFNGELLDTTNVLGAALFDPPSTVHQIETTAGETVRIEAHYTLPPEQFIPLTAILLGEEAVVTDPQAEIDDAVAAASSADVAIVVVGTNSSIESEGFDRSNLDLPGHQNELVRAVAAANPRTIVVVNSGSPVLMPWLEDVGAVLLGWFGGQEFGRAIADILLGVAEPGGRLPTSWPAALADVPVLSTTPVEGKLEYAEGIHVGYRAWLQQQAAGGPAPAVPFGFGLGYTSFEFSAPHAPQQVQAGNDVIVHVPVRNTGSRAGREVVQVYLERPDSTVERPVRWLAGFAGTHLAPAGTESVEVRIPARAFEHYDGGWQVERGAFRILVGKHVEDDFQVLAIDVR | 12.6% | <0.5% | <0.5%
4 | 832 (protein, listed as Arthrobotrys oligospora) MDATTLKEIEETLAQLTLEEKISLLAGKDFWRTVPLPEKQIPSIKVSDGPSGARGDTFSGGQKAAFFPSGILMGATFNPELAYETGALLGEEVKAKSASVLLAPTACCHRSPLGGRNFESYSEDPLLSGKMASGYIRGVQSRGIAATMKHFVANEQETWRLYVDETIDETTLREIYLKPFEIAMREGQPWAIMTAYNIINGVHCDSHPLALKQVLRGEWNYEGLVMSDWFGCNSMVESLLAGLDLEMPGPARKRPIKEFVEAAEKDESIRKAIDDSARRILTLIAKVGKWKDMTPEAPEYSRNDPETGKLIRRAGGEGTVLLKNEGKTLPLQPGSLKKVAFIGPNAKATVAGGGGSASLEPNYLTQPYETFVNAIKEINGDIEVPWVQGCIIDRWVPNIDVEGGFCRVGGPDSEAGLFLEWFRGYEATGEPVATTVFKTSNAFLWDSRPTSISPSEEFSVKFSGQISVPEDGKYNISLSTITASKLYLNGELLIDNWDFKERGNLMMNVGSEEVVKTIELKKGEWYPILVHNSSIWPKDSPRDPPMEEIGALGIRLGVAPVYDNAVLIAEAADAVKDADAVVIVVGLNNEWESESYDRSDTKLPNNQDDLIEEIAKVNQNVIVVNQSGAPVDMPWAENSNVKAIVQAWYAGQEAGHVIADVLLGKQNPSGKLPLTFPIKVQDNPSYFYFPGRDQKVEYTEKLMVGYRYYDTENVETRFPFGYGLSYSTFSIGEPSLSTAELTEGQTFTANIDVSNTSNVAGAEVVQLYVKRPASTSSIKRPVKELKGFKKVHLGTGETATANITVDDKSLGIWSTEAGKWVVEAGDYEVLIGTSSVQDELKPAGKITVKAAWSWI | 9.8% | <0.5% | <0.5%
5 | 841 (protein, listed as Mycetocola reblochoni) MTTPRPSLEQKAALTSGRDTWHSESLDDIPVMMMTDGPHGLRQQLQDGGDALGIGNSVPATCFPPAAGLASSWNTGLVERVGVALGTEARATEIRILLGPGLNIKRSPLGGRNFEYFSEDPRVSGELAAAMVTGIQSMGVAATPKHFAVNNQETDRLRVSAEVDERALREIYLSAFERVVTVASPWAFMSSYNRINGVYASENHWLLTELLREEWGFDGLVMSDWGAVNDRVAALAAGLELEMPPTGTDQLIVDAVRTGELDEAVLDRAVDRLRLLAERTERPPLTGYDADAHDDLARSAAQESIVLLKNADVLPLDAAATPRIAVVGEFARTPRYQGGGSSRVVPTRMHSALDALTDALGLGADGLSFSPGFALDGDTPAGAADEAVAAVEAADVAVLFLGLPDGTESEGFDRTTIALPAEQLHLLERAAATTTPVVVVLSNGAVVDVASWEHHADAILEAWLLGQAGGLAIADVLLGTVSPSGKLAETIPLDLADTPSHLSFPGRDGVVVYGESVYVGYRHYDTRRLPVAYPFGFGLSYTRFEYSELEVTATGRNSWTVAATVTNVGERRGAETVQLYIGVEQDRPDRPVHELRGFAKVDLEPGESARVELPVTERDLSHWSVRDGAWRVEKGRYTVELAAHSRDVRLATTITSEGDGVVTRLNGMSTVGEWLDHPYGREQIQWFIDGVDTRFGATAPEMIVMLKQLPIAKLTTFGIGLDSARIERMCAEAAADGERHGEQP | 12.3% | <0.5% | <0.5%
6 | 894 (protein, listed as Microbacterium sp.) MSDSVAQPSVTDLTLEEKASLTSGADFWTTTAIDRAGVPSIMMTDGPHGLRKQADGNDHVGLANSVPATCFPPAVGLSATFDPELAVRVGEALGVESAIENVAVILGPGINIKRSPLCGRNFEYMSEDPIVSGVMGGALVRGIQSRGVGASLKHFAANNQETDRLRVSSDVDPRPLREIYLRGFQIAIEGAQPWTVMCSYNRINGAYASEDPWLLTSVLRDEWGFEGLVVSDWGAVNDRVAGVIAGLDLEMPSSGGATDAQLVAAVRDGSLDEAALDVVARRVLDLVQKAGRRPAIDGHLDIDAHHALAREVAGRAIVLLKNDDRVLPLAAEQKVAVIGAFAETPRFQGAGSSLINPTRLDSALDGFAEYAAEGAVTYAAGFALDGSGDADVLRAEAVAAASASEVAVVFLGIPASAESEGFDREHIDLPADQLALLDAVLVANPRTVVVLSNGGVVALPFADRVPAIIEGWLLGQAGGSATADVLYGAVNPSGRLAETIPVRLEDNPSYGNFPGEHGHVRYGEGLFVGYRWYDERGLDVTFPFGHGLSYTTFAYGDAQASVRSDGDMAVRIAVTNTGERAGRELVQVYTALQGSAVQRAPRELKAFQSVALEAGETREVELIVRRDDLAYWDVRVDRWVVEGGEYEVHVGASSRDIRSVASAEVAGDELVLPASLNSSITELLAHPVLGERMRALVAAAFGPGAESEGALQVLGSFPIGRLAAFPNVPATRDEIERMIAQA | 21.3% | <0.5% | <0.5%
